Source: the domain aggregation screens of Martell et al. (2025)

Assay: soluble fraction after stress (log2 fold change); higher = more stays soluble; pooled small domains, quantitative proteomics
Conditions: stress: 50 degC
Method in brief: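 Each library was heated to 50°C as a stress step. The libraries, made up of small protein domains, were pooled and analysed at high throughput by quantitative proteomics. The reported value is the base-two logarithm of the fold change in each protein's soluble amount after stress, taken as a measure of aggregation propensity. The higher the value, the more protein stays in solution.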

| Sequence | soluble fraction (log2) |
| --- | --- |
| HMTSSKISFIDPVNGGKVSVSLENSTLEKLQNRFGVNSVVRNEAGDVELKDKAQEFVAGWFADIAYTRG | 0.0813 |
| HMATRAEQMAKTHQAILDTARELFLRNGYDATSTRDIANAIGITQPALYHHFKDKEVIFLAVI | -0.172 |
| HMETWDQAYETIKQNILNLTYPPGMPLTEAKLAEELGMSRSPVRTALRMLQTDGLIVTDYYKSMTVKEI | -1.71 |
| HMISRDPYDAGAIKRHFSASGLFSSKELAHYLGKSVSTAKNVLSDLQQQGIVEMVGQGPATKYRFI | 0.343 |
| HMDPTVTFIVQVNGRVRDKITLSSDISENEAKNVALESPKITPHISGKSLSRVIFVPGKLINLVV | -0.578 |
| HMVTQVDYGTFLTRIDEGKVKSVEIQDNQIAFTAIDEAGKENIYVTGKVNDPELVDRLLAADIEDFSQVIP | 0.12 |
| HMSAEVSEIEIQRIISYYRNQNGVPDKYNEIFDRIAAQYTDEQLKVISNFLPSDVKQYLSFNNEKYKSLG | -0.295 |
| HMHFIMEYRIRAYVDELFESAPRTQRAYELKIELTQNLIDKYYALVSEGKSEQDAYNLTVMSIGDVREL | -0.298 |
| HMDMTPEEFLAWARHKPFGDPFPKTQTVTFLVPLLGVSRTNIFTWISGKVNPSKTSLLLMEALKRENR | -0.289 |
| HMSEFLTIVRAVYSGLSRRKVAAMHKVSRNTVSLYLRQARDQGWLTLEDLEKLDDLTVSQGVS | -2 |
| HMNASTVTLENFEGAKYDDVYGKYDYQFSVTYEQTDKYESGVIISQKPEAGTKIIKGSQVSLVVAT | 0.0657 |
| HMGQISLSVNAIPEKAEVILDGNSIGNTPIRKNTITPGSHMFEIEKKGYAPISYDIYVNPSKAINLDFFM | -0.63 |
| HMGAYPENSLLKERGQSAVYLIQENRKRLFFNAEAFLINGYNWKDIQVVDDLSKILTGKVIYAK | -2.76 |
| HMPAAKARTWQEATHAFQRDFLLETLRRARFNAADAADQLGLARPALYTTAKRLGLDLVAERQRWEAEAH | -0.173 |
| HMASATGVVTAASLNVRSGAGTNYSVVNTLAKGTKVTVLNTADGWYEIEATVNNEKITGYVSATYIAMD | 0.222 |
| HMDPTIRRGELIDAASRLFLSKGYAATSVRDILDEVGNRTASPSVFYYYFKSKEEIYQAVLRRHSE | -0.847 |
| HMSANVSMEEALRRTSQAHSLAGKWMRRVLQMAQGRDLIEQMQREAQEAHLPELIGMSVQLEFIRRG | -0.11 |
| HMAMMTKQRLIQLIHIARNDLQMDEDTYRQMLQGLTGKASTKGMDTPQLNRVLESMKKKGFRIK | -0.447 |
| HMSSEITYDKFIEMVEEGNVKEVTLQSDTLTIKPKHQDSAFSEKEYYTRQMESADQLTERLEGTGIEFHS | 0.104 |
| HMLQIGDEEFIENIVKQVIDENQKAVDDYKKGKEKVMAFLIGQVMKKTKGKVNSEIVEKTIKKL | -0.262 |
| HMLIVLKPNVSQEEIDHIVDKIRSLSLEPHVSTGVQRTIITVIGDEDVIREQPLEALAGVESVKSILKP | -0.0145 |
| HMGAVVSPMPGVILDIKVKEGDSVSEGQTVIILEAMKMENEIVSEFTGTVSAIRVKKGDTVDTDAVLVEI | -0.393 |
| HMFDFNNLSSLSDVELSVYRFVVNNPEKVAYMRVRDIAQKTHVANSSVMRFVHKIGFASFPEFKAYLKNIN | -1.03 |
| HMRRQRNPEIFDQLVNKFHFTFTQTQQLKQLIKRWHMLFPGKSLKSAIQGYKSAKEILTYINDSLDVVE | 0.124 |
| HMTELLTPKQRQVFELALREGYYDVPRRTSITEMARLLGVAKSTLSAQMHRMEATVMSTFAEEIRKQ | -1.74 |

| Sequence | soluble fraction (log2) |
| --- | --- |
| HMDSIGTQIRKLREEAEMPLRKLSALLDIDQSTLSKIERDERRANTQMIEQIAKIFKVNKEQLLVA | -0.926 |
| HMKDLIGEAKAKELALGHAKLSASDVTFIHVELDWENGRRVYDVEFYSGAKEYDYEIDAKTGEIVSFDY | -1.27 |
| HMEDKFEYQGERKSLIYPTSFSELTEALGVRNMLQSIIDFATRDEDTSGYEEMKERQNEYIQEYL | 0.0302 |
| HMSINTIIAKNLNRLRNERNLSLGQLAELSGVSKVMLSQIEKGDSNPTVNTIWKIASGLNVPYTAILDQP | -0.0848 |
| HMATPKRGFRKQLAPLVQSGTITREEAGELSRSSGDATALRTKIGELMKAGKLTRKEAGELYSDAFPENA | 0.153 |
| HMSDAQIKASINDLWFKYNLETFAKLNLNVNQGRVLVTGIVQNPEHRLEAIRLVWTVDGVQQVINEIQVAE | -0.795 |
| HMSAPQKWDGSLQDFIRFKQEAKTLMDNIPNKRLALNAILETISDGKMRKRLAKYDGPESALKSLELEFGN | -0.0592 |
| HMDFITPYEIEQGQYEGAELYEDGKFEEAFSLSSIAAQRGMKTAQYLLGIMFLKGEYVDQSLAIGMAW | -0.272 |
| HMQNEQIAFSKFLQEVDSGRVVQVEIQGNNIKGILSDGSKFYTYSPNYPELVGKLSEKGVNIVASPVE | 0.0802 |
| HMYLQKGISNGKVYLSIVHGYRDPVTKKVRRKTIRSLGYLEDLEKQYADPIKHFEAVVAKMNEEEALE | -0.517 |
| HMSDYKSALQEAVQTNKQSIEYVLIKESGPAHNKTFTFEVRIDNISYGVGTAKSKKEAEQIAAKDALDKLV | -0.0635 |
| HMIKYTIEELGELTGFTRRTIRYYVQEGLIDPPAGRGRGGFYYDSHVQQLLRIKSFQEKGIGITAMVSLM | -2.51 |
| HMNNQMTFSKFLNEVDAGRVVEVEIQGNNIKGVLADGNRFNTFSPNYPNLVEKLSDKGVSITAAPK | 0.0484 |
| HMNMMESNLFAVYDNDDIVKTLRQGAMEIDSLIRLMGKSSAEVLEKLTTMELQGIITRSGNIIALNN | -0.064 |
| HMKTMEQSYIGRKIILDENVEDSALIKFEGIYWTFKSVSGPLKKGTEVEIIGIEGNKILIKNK | -0.198 |
| HMEKDRDKRIRKRVLTALKRNDKKMTDKAFALLTSRIRDESILDQEVLKLIGYVGDRTTIDSKDINIVVAE | 0.0525 |
| HMSQDINVFIKTNPENATIIWDGESKGTNGIFKSNAGAHRLRIEMQGYESIDQDIQVSDKQFSFEYNLKKE | 0.152 |
| HMFTSVDVAPDLRTAKVFYSVLGRKKSDKEINIAINQKRKAFKKFMGPELHLKNIPDLHFYYD | -0.232 |
| HMSDLVATKEQVVEAYKYGLGLGLDNSTLKMLLFDIRGEDVADQDKISDGMTVSEIEIWKEGMRTIAEEYL | -0.508 |
| HMHGLNQNKPIPIADIVNSVNNYLTSLGKKTITDNSVLSNLKKAAKYLNTAYNLVLRPDSLNMTVTLL | 0.0467 |
| HMNFRESVLAVFENSKQKYLDFDEIAKRLGLTRGFDRQALASMLNELTRNDEIVFTKRNKYTLPEN | 0.125 |
| HMTTGREGLIGAVGTVRQAIAPEGYVFVEGELWRAKSPAGPLEPGTTVRVIAIDGLTLTVMPAE | -0.348 |
| HMPAMYKAERMNQILSILADQGDVDVGTLARQFGVSLVTIRKDLTYLESSGQLVRTHGGAIAVA | -0.767 |
| HMTIGLLISKARTNSGLTQAELATRAGTSQAAIARYESDRVSPSVSTLERVLRAAGEELVISSS | -0.0977 |
| HMSDHKNANFTKVVKVAQELLQDEDDKAGITPTLIEEKISAVLAMNRRWAEGLDRAAVADELIRRFSIW | -0.42 |

| Sequence | soluble fraction (log2) |
| --- | --- |
| HMQSHGSRIWTDITGNFTREASFIELAEGKVTLQLTDGRRTIISFEILSKKDQEYVLDIGDS | -2.11 |
| HMQDTTLTSQILRVPSSVNINDLANVLKSLAGKNTVVAPYKAANTIIITGYAPNVRRVLSLANELIPRLDV | -0.53 |
| HMDGIPVPDVKGTVEAEATATLKNSGFEVTKTQDFSDTVEAGKVISQNPAGGSSAASGSSVTLVISQGPN | 0.0569 |
| HMSSTSTKTQNIVHIVKSGETLSAIASKYGVSVDNIKKWNNLSSDKLSIGQKLKINPTTQTSS | 0.245 |
| HMQATETFSLIVPMSSAGNRLDVVLSELLPNFSRKKIQDAIKNGDATLNGKAPKIRDKVYGGENITITLIL | -0.432 |
| HMTISDEAMQAGRDAFIQALVAMGAEKNADAMASIEKALSADPGNKEYLATRDLIKKSMGMKK | 0.44 |
| HMKNKFYEEFSDYIFKHTGIHYAEANYYQLDARINKLMKFLETSDENDVLKAIQGGAVKDQRVHQMIVDLA | -1.7 |
| HMRGADNAASILKEVGPHPEDGKPITVRSGRYGPYVKHGTTNATLPKDIKPEEITLDEAIALINERVAKG | -0.243 |
| HMEPVDYEALRKELMQKVMGLFTQSRDVGIQILSSFGAKKLSDVPDDKLVAFAASVDKALAG | -0.0404 |
| HMIKNKDRIQYTLAHRKAFRKIEKELLGYNTFRSLFHDLDKVFLYPFFDYKKVHNFHRNHAHH | 0.199 |
| HMESPLEQLTNRELQTLQMLGKGLSTKQIAAQLNLSVKTVETYRENLKRKLNLDSGSELIRYAIHRSNE | 0.469 |
| HMAGTAMRATTAVNVRSGAGTNYSRIGLLQAGEQIQALSSKNGWTQVSYKGRTGYVASAYLASL | -0.309 |
| HMNGAVAEQARKQLMAALKASEFIAEEKLDEWLDALALPEDKRTAIVDAVDELDYEEAISELEN | 0.0153 |
| HMNSTSGIAGVGYWINQYRKKKGMSPVDKKSPLVRRVYDWVQEQYDEGRITIISDAELTRQTELAMEA | -0.771 |
| HMDLPDYYFRVRENGAVVFRVGTENRQRRIEMVEIATVNVKNGNIKPHGEVDLTKADRLAIGEWLAARQAQ | -1.36 |
| HMTYQTVRYGSTGSAVRQLQSALNQKGYQLSEDGIFGAKTRAAVRDYQKKNGLLLDGIAGSQTWNHLMS | 0.224 |
| HMYVKKSSFVKKSLNNYEFKITDNTNDLLIFYKGMLPDLFREEQGIVVEGLIDKNNNIVASKV | -0.0872 |
| HMKTTKDSVFEYIQKELMTNEEYKQGINTNVIAQHFGLQRSNISTILNELVKEDRLEKTNTRPVLYFLPQ | -0.0929 |
| HMSQSIGQEKALSIALADAGVQKENALGLEVKGEYDDGQLLYEVEFRAGGVEYEYEVRASDGRIVKAERD | 0.13 |
| HMEHAETDTRERILVVAERLFRQLGYQKTTVADIAKELRMSPANVYRFFDSKKSIHEGVARTL | -0.228 |
| HMGQAAHYEGVKGDGESDTDVISRVLTAAGAEAQKDDIFVVKELIAGGKYSYTAYVYDGSVWAAM | -0.266 |
| HMLPLGSNEYETAVIKHLASGVQDADEIQRLTGIDQTSLNTALTMLELAGTIRPLGNNHWTL | 0.167 |
| HMRKDWTPGAFVEAFVNDTPATRSTILAKAVSAGLSRWAADNLLRTADNDGLMVRQGSGKRNEPFTYRRGP | -0.196 |
| HMFEDYLRMKGLSIVSFSKQTGIPISTLRNLNKIRYDKWKIRYLEELSNVLNKTIQEIIEELKNMG | -2.32 |
| HMHLDIGQLVQRILADIQVGKLADGQRKLPAEPVLMERYQVTRYTLRQALKQLSNMGYTYQMHGIGTFVRQ | -0.863 |
